Values quoted from earlier work, collected in patent US10954506B2 (priority 2013, dated 2021).

Settings: in vivo, iv

B1: BChE: Butyrylcholinesterase, natural stoichiometric bioscavenger found as soluble protein in human plasma (protein, UniProt P06276 29-602, looked up)
Cholinesterase: EDDIIIATKNGKVRGMNLTVFGGTVTAFLGIPYAQPPLGRLRFKKPQSLTKWSDIWNATKYANSCCQNIDQSFPGFHGSEMWNPNTDLSEDCLYLNVWIPAPKPKNATVLIWIYGGGFQTGTSSLHVYDGKFLARVERVIVVSMNYRVGALGFLALPGNPEAPGNMGLFDQQLALQWVQKNIAAFGGNPKSVTLFGESAGAASVSLHLLSPGSHSLFTRAILQSGSFNAPWAVTSLYEARNRTLNLAKLTGCSRENETEIIKCLRNKDPQEILLNEAFVVPYGTPLSVNFGPTVDGDFLTDMPDILLELGQFKKTQILVGVNKDEGTAFLVYGAPGFSKDNNSIITRKEFQEGLKIFFPGVSEFGKESILFHYTDWVDDQRPENYREALGDVVGDYNFICPALEFTKKFSEWGNNAFFYYFEHRSSKLPWPEWMGVMHGYEIEFVFGLPLERRDNYTKAEEILSRSIVKRWANFAKYGNPNETQNNSTSWPVFKSTEQKYLTLNTESTRIMTKLRAQQCRFWTSFFPKVLEMTGNIDEAEWEWKAGFHRWNNYMMDWKNQFNDYTSKKESCVGL
effective dose: about 3 mg/kg
